According to PMC12132378 (bioRxiv, 2025):

Target: Ub-Lys-TAMRA (UniProt P0CG48 1-76, Ub is isopeptide-linked to a TAMRA-labeled Lys-Gly dipeptide (modification at the Ub C-terminus))
Assay: fluorescence polarisation

B1: RNF114 (wild type, full length) (enzyme)
chain: MAAQQRDCGGAAQLAGPAAEADPLGRFTCPVCLEVYEKPVQVPCGHVFCSACLQECLKPKKPVCGVCRSALAPGVRAVELERQIESTETSCHGCRKNFFLSKIRSHVATCSKYQNYIMEGVKATIKDASLQPRNVPNRYTFPCPYCPEKNFDQEGLVEHCKLFHSTDTKSVVCPICASMPWGDPNYRSANFREHIQRRHRFSYDTFVDYDVDEEDMMNQVLQRSIIDQ
Kd: ~20 µM
